Measured values published in patent publication US20180002383A1.

Assays:
[1] = target: human GLUT-1 glucose transporter, endogenous on cells (the 'HTLV receptor' on HeLa, 293T, Jurkat cells and human erythrocytes) (human) (UniProt P11166); assay: cell-based or functional assay
[2] = target: human GLUT-1 glucose transporter, endogenous on cells (the 'HTLV receptor' on HeLa, 293T, Jurkat cells and human erythrocytes) (human) (UniProt P11166)

human GLUT-1 glucose transporter, endogenous on cells (the 'HTLV receptor' on HeLa, 293T, Jurkat cells and human erythrocytes) (human), sequence (P11166 whole entry): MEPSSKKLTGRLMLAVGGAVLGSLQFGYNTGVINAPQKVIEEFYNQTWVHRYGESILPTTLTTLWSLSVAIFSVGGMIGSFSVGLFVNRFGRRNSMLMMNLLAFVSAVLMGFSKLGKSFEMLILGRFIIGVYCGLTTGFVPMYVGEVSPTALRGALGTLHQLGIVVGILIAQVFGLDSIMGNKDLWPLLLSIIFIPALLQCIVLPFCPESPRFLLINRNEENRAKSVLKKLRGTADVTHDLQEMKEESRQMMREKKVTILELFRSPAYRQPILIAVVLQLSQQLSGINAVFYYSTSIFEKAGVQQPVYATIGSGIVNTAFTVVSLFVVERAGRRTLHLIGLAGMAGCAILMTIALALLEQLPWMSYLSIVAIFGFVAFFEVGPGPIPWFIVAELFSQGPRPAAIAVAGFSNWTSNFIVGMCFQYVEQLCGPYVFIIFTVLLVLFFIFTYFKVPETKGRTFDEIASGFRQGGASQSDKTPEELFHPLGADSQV

Substance: HTLV-1 RBD (H1RBD), first 215 residues of HTLV-1 SU fused to a C-terminal rabbit IgG Fc tag (rFc) (Fc fusion)
- 2-deoxyglucose uptake (fold decrease) [1]: 4
- Lactate accumulation in culture supernatant [1]: 3 fold lower
- fold increase of binding after overnight culture without glucose [2]: 2 fold

Substance: HTLV-2 RBD (H2RBD), first 178 residues of HTLV2-SU fused to a C-terminal rabbit IgG Fc tag (rFc) (from UniProt P01868 98-324) (Fc fusion)
- 2-deoxyglucose uptake (fold decrease) [1]: 4
- HTLV titers (infection of 293T cells by MLV particles pseudotyped with HTLV-2 envelope) [1]: 2 logs

Substance: H183FEnv, non-syncytial chimeric envelope with the N-terminal 183 amino acids of the HTLV-1 receptor
- Lactate accumulation in culture supernatant [1]: 3 fold lower
